The source of these data is patent publication US20110191904A1.

Read-outs that look alike come from different tables or passages of the source.

Holding throughout (assay): cell-based or functional assay
Experiment [1] deals with T1, Arabidopsis FAD2 (At3g12120) (Arabidopsis thaliana) (UniProt P46313).
T1 sequence (looked up): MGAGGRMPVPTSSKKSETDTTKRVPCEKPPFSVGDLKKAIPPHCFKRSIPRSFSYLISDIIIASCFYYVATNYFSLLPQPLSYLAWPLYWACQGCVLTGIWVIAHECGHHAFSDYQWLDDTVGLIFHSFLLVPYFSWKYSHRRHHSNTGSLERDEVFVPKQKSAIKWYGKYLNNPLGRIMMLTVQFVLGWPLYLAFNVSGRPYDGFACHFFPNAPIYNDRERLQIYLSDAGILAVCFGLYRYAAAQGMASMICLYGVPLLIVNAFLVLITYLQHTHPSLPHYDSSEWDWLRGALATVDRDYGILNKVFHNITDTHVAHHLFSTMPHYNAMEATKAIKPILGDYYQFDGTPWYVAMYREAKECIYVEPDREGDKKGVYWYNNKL

Experiment [2] concerns the target T2, Arabidopsis FAD3 (At2g29980) (Arabidopsis thaliana) (UniProt P48623).
T2 sequence (looked up): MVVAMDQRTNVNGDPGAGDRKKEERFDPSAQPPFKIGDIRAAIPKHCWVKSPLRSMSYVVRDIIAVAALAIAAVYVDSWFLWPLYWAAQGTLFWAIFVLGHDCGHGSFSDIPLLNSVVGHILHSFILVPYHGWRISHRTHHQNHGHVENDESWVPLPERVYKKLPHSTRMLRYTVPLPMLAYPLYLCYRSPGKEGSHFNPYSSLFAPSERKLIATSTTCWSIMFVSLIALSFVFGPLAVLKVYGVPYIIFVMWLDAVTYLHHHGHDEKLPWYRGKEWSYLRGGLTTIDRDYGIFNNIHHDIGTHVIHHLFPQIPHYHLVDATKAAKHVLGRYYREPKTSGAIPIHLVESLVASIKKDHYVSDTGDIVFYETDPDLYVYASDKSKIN

In experiment [3] the target is T2, Arabidopsis FAD3 (At2g29980) (Arabidopsis thaliana). This is another data set of the same source.
The target in experiment [4] is T1, Arabidopsis FAD2 (At3g12120) (Arabidopsis thaliana). This is another data set of the same source.

As for “Arabidopsis cytochrome b5 Cb5-B (At5g48810) (from UniProt Q9ZWT2 1-140)”, in experiment [1], the 16:2 content of cb5 mutant yeast co-expressing both, 15 C (GC-FID) (mol percentage of total fatty acids) was found to be 1.3; the 16:2 content of cb5 mutant yeast co-expressing both, 28 C (GC-FID) (mol percentage of total fatty acids) worked out at 1.2; the 18:2 content of cb5 mutant yeast co-expressing both, 15 C (GC-FID) (mol percentage of total fatty acids) stood at 7.4; the 18:2 content of cb5 mutant yeast co-expressing both, 28 C (GC-FID) (mol percentage of total fatty acids) is 6. In experiment [2], this molecule yielded a 18:3 content of cb5 mutant yeast co-expressing both, 15 C, 18:2 fed (GC-FID) (mol percentage of total fatty acids) of 11.8 and a 18:3 content of cb5 mutant yeast co-expressing both, 28 C, 18:2 fed (GC-FID) (mol percentage of total fatty acids) of 8.2.

B1: soybean (Glycine max) cytochrome b5 GmCb5-C2 (protein)
chain: MGSKTKTFTFEEVAKHNHRKDCWIIVKGKVYDVTPFLDDHPGGDEVLVTATEKDATTDFEDIGHSDSATQMMEKYFVGEVDTNTLPAQVTSNNSVRQPTQAPPAYNNQSSGFVVKMLQYIVPLLILAFAFGLQYYGKKNKSTESEN
In experiment [3], B1 had a 18:3 content of cb5 mutant yeast co-expressing both, 15 C, 18:2 fed (GC-FID) (mol percentage of total fatty acids) of 3.8 and a 18:3 content of cb5 mutant yeast co-expressing both, 28 C, 18:2 fed (GC-FID) (mol percentage of total fatty acids) of 3.9.

B2: Arabidopsis cytochrome b5 Cb5-C (At2g46650) (protein, Arabidopsis thaliana, UniProt Q9ZNV4 1-132, looked up)
chain: MANLISFHDVAKHKCKNDCWILIHGKVYDISTFMDEHPGGDNVLLAVTGKDASIDFEDVNHSKDAKELMKKYCIGDVDQSTVPVTQQYIPPWEKESTAAETTKEESGKKLLIYLIPLLILGVAFALRFYNNK
In experiment [4], B2 showed a 16:2 content of cb5 mutant yeast co-expressing both, 15 C (GC-FID) (mol percentage of total fatty acids) of 1.2; a 16:2 content of cb5 mutant yeast co-expressing both, 28 C (GC-FID) (mol percentage of total fatty acids) of 0.9; a 18:2 content of cb5 mutant yeast co-expressing both, 15 C (GC-FID) (mol percentage of total fatty acids) of 7.2; a 18:2 content of cb5 mutant yeast co-expressing both, 28 C (GC-FID) (mol percentage of total fatty acids) of 6.4.

B3: soybean (Glycine max) cytochrome b5 GmCb5-C3 (protein)
chain: MASNPKTLTFEEVAKHNNKKDCWIIINGKVYDITPFLDEHPGGDEVLLTSTGKDATIDFEDVGHSDSAIEMMEKYFIGKVDTSTLPPKVSHSLPQPTQTHGAGNQSSGFVVKILQFLLPLLILGLAFALQYYGQKKHASTS
With B3, in experiment [3], the 18:3 content of cb5 mutant yeast co-expressing both, 15 C, 18:2 fed (GC-FID) (mol percentage of total fatty acids) was 2 and the 18:3 content of cb5 mutant yeast co-expressing both, 28 C, 18:2 fed (GC-FID) (mol percentage of total fatty acids) amounted to 2.6.

B4: Arabidopsis cytochrome b5 Cb5-E (At2g32720) (protein, Arabidopsis thaliana, UniProt O48845 1-134, looked up)
chain: MGDEAKIFTLSEVSEHNQAHDCWIVINGKVYNVTKFLEDHPGGDDVLLSSTGKDATDDFEDVGHSESAREMMEQYYVGEIDPTTIPKKVKYTPPKQPHYNQDKTSEFIIKLLQFLVPLAILGLAVGIRIYTKSG
In experiment [3], B4 displayed a 18:3 content of cb5 mutant yeast co-expressing both, 15 C, 18:2 fed (GC-FID) (mol percentage of total fatty acids) of 12.6 and a 18:3 content of cb5 mutant yeast co-expressing both, 28 C, 18:2 fed (GC-FID) (mol percentage of total fatty acids) of 8.2.
